Data from patent US20260167710A1 (GlaxoSmithKline, published 2026).

How the values were obtained:
human IL-33 [1] = molecular target: T1, human IL-33 (human, Biotinylated in Example 2; the site is not stated.); assay: MSD-SET solution equilibrium titration, 25 C
T1 construct: In-house protein; This is the reduced, active form; also called reduced human IL-33; rhu IL-33; not shown: the N-terminal tag of the in-house construct, 14 residues by the HDX numbering; only 6H of it is stated
T1 chain: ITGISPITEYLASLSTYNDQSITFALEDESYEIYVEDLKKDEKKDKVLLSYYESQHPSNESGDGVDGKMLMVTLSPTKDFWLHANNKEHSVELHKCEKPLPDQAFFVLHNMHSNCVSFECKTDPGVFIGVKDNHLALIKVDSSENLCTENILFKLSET

cynomolgus IL-33 [2] = molecular target: T2, cynomolgus IL-33 (cynomolgus monkey, UniProt A0A2K5W3I1 112-269); assay: MSD-SET solution equilibrium titration, 37 C
T2 construct: also called cyno IL-33; cynomolgus monkey IL-33
T2 sequence: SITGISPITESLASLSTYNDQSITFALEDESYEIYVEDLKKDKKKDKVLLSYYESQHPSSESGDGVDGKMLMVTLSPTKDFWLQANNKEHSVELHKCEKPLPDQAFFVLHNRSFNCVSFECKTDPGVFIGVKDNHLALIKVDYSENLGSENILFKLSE

human IL-33 [3] = molecular target: T1, human IL-33; assay: MSD-SET solution equilibrium titration, 37 C
human IL-33 [4] = molecular target: T1, human IL-33; assay: cell-based or functional assay
cynomolgus IL-33 [5] = molecular target: T2, cynomolgus IL-33; assay: MSD-SET solution equilibrium titration, 25 C, n = 3
hFcgRIIIa (V158) = molecular target: T3, hFcgRIIIa (V158) (human, UniProt P08637 17-208); assay: SPR (ProteOn XPR36), anti-poly-histidine IgG surface, antibody as analyte, equilibrium fit, 25 C
T3 construct: extracellular domain

hFcgRIIIa (F158) = molecular target: T4, hFcgRIIIa (F158) (human, UniProt P08637 17-208); assay: as above
T4 construct: extracellular domain

hFcgRIIa (R131) = molecular target: T5, hFcgRIIa (R131) (human, UniProt P12318 34-217); assay: as above
T5 construct: extracellular domain
T5 sequence (looked up): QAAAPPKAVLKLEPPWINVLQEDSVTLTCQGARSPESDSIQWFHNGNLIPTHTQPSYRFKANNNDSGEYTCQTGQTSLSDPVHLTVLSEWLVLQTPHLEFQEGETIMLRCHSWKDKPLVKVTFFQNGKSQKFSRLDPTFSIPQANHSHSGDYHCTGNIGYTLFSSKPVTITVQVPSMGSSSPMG

hFcgRIIb = molecular target: T6, hFcgRIIb (human, UniProt P31994 43-217); assay: as above
T6 construct: extracellular domain
T6 sequence (looked up): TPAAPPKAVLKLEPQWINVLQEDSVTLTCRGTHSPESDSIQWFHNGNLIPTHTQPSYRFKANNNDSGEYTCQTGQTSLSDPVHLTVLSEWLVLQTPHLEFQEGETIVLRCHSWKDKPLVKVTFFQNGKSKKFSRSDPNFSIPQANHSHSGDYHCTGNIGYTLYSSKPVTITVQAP

hFcgRIIa (H131) = molecular target: T7, hFcgRIIa (H131) (human, UniProt P12318 34-217); assay: as above
T7 construct: extracellular domain; His at position 131 (mature numbering as commonly used)
T7 sequence (looked up): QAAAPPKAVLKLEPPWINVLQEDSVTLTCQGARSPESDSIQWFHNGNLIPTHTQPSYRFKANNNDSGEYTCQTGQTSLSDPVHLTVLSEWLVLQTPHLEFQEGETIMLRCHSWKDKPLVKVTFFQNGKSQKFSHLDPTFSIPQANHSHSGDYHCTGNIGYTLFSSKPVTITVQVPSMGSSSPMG

hFcgRI = molecular target: T8, hFcgRI (human, UniProt P12314 16-292); assay: as above
T8 construct: extracellular domain; the chip carried an anti-poly-histidine IgG; also called recombinant soluble human Fc gamma receptor I

[6] = molecular target: T9, cynomolgus recombinant neonatal receptor (FcRn) (cynomolgus monkey, UniProt Q8SPV9 24-297; Q8SPW0 21-119); assay: SPR (ProteOn XPR36), antibody captured by protein L, FcRn as analyte, equilibrium fit, pH 7.4, 25 C
T9 construct: extracellular domain; beta-2-microglobulin is not mentioned; also called cyno FcRn; cynomolgus monkey FcRn

[7] = molecular target: T10, human recombinant neonatal receptor (FcRn) (human, UniProt P55899 24-297; P61769 21-119); assay: as above
T10 construct: also called human FcRn; human recombinant soluble FcRn

human IL-33 [8] = molecular target: T1, human IL-33; assay: cell-based or functional assay

T4 sequence (P08637 17-208): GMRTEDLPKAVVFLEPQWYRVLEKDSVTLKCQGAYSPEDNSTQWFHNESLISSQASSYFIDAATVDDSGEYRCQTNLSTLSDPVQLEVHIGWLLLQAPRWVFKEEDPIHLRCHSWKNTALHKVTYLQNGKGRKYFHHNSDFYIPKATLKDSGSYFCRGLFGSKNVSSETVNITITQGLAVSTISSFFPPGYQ
T9 sequence (Q8SPV9 24-297 limits assumed, chain 1 of 2): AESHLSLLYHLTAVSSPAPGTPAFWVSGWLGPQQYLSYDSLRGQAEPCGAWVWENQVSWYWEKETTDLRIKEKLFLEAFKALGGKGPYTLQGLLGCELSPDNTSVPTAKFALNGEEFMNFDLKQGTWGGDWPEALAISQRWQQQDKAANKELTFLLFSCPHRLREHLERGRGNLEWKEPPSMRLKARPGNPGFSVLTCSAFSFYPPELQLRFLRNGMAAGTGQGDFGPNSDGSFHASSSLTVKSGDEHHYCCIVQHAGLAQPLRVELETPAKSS
T9 sequence (Q8SPW0 21-119 limits assumed, chain 2 of 2): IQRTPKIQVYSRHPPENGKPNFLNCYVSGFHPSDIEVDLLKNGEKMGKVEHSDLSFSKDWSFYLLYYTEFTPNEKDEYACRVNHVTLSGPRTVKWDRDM
T3 sequence (P08637 17-208 F176V): as the sequence (P08637 17-208) above, with F160V counted along it
T8 sequence (P12314 16-292): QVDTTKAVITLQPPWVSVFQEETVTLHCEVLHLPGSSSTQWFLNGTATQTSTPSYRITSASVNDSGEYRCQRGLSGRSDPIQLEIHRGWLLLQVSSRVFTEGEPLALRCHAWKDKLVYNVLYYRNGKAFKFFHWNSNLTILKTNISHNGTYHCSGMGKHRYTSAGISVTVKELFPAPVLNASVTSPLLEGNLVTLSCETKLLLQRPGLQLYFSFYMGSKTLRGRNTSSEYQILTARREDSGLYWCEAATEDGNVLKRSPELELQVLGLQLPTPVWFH

Kd (human IL-33 [1]): 0.0033 nM
Kd (cynomolgus IL-33 [2]): 0.0565 nM
Kd (human IL-33 [3]): 0.0135 nM
IC50, inhibition of 100 ng/mL IL-33/IL-12 induced IFN-γ secretion from whole blood, pre-complexed, Mean (human IL-33 [4]): 3.9 nM
IC50, inhibition of 100 ng/mL IL-33/IL-12 induced IFN-γ secretion from whole blood, pre-complexed, donor #91232 (human IL-33 [4]): 2.79 nM
IC50, inhibition of 100 ng/mL IL-33/IL-12 induced IFN-γ secretion from whole blood, pre-complexed, donor #91845 (human IL-33 [4]): 5.75 nM
IC50, inhibition of 100 ng/mL IL-33/IL-12 induced IFN-γ secretion from whole blood, pre-complexed, donor #91865 (human IL-33 [4]): 0.88 nM
IC50, inhibition of 100 ng/mL IL-33/IL-12 induced IFN-γ secretion from whole blood, pre-complexed, donor #92023 (human IL-33 [4]): 3.43 nM
IC50, inhibition of 100 ng/mL IL-33/IL-12 induced IFN-γ secretion from whole blood, pre-complexed, donor #92186 (human IL-33 [4]): 3.01 nM
IC50, inhibition of 100 ng/mL IL-33/IL-12 induced IFN-γ secretion from whole blood, pre-complexed, donor #92187 (human IL-33 [4]): 4.75 nM
IC50, inhibition of 100 ng/mL IL-33/IL-12 induced IFN-γ secretion from whole blood, pre-complexed, donor #92257 (human IL-33 [4]): 2.66 nM
IC50, inhibition of 100 ng/mL IL-33/IL-12 induced IFN-γ secretion from whole blood, pre-complexed, donor #92258 (human IL-33 [4]): 7.9 nM
pIC50, inhibition of 100 ng/mL IL-33/IL-12 induced IFN-γ secretion from whole blood, pre-complexed, Mean (human IL-33 [4]): 8.48
pIC50, inhibition of 100 ng/mL IL-33/IL-12 induced IFN-γ secretion from whole blood, pre-complexed, donor #91232 (human IL-33 [4]): 8.55
pIC50, inhibition of 100 ng/mL IL-33/IL-12 induced IFN-γ secretion from whole blood, pre-complexed, donor #91845 (human IL-33 [4]): 8.24
pIC50, inhibition of 100 ng/mL IL-33/IL-12 induced IFN-γ secretion from whole blood, pre-complexed, donor #91865 (human IL-33 [4]): 9.05
pIC50, inhibition of 100 ng/mL IL-33/IL-12 induced IFN-γ secretion from whole blood, pre-complexed, donor #92023 (human IL-33 [4]): 8.46
pIC50, inhibition of 100 ng/mL IL-33/IL-12 induced IFN-γ secretion from whole blood, pre-complexed, donor #92186 (human IL-33 [4]): 8.52
pIC50, inhibition of 100 ng/mL IL-33/IL-12 induced IFN-γ secretion from whole blood, pre-complexed, donor #92187 (human IL-33 [4]): 8.32
pIC50, inhibition of 100 ng/mL IL-33/IL-12 induced IFN-γ secretion from whole blood, pre-complexed, donor #92257 (human IL-33 [4]): 8.58
pIC50, inhibition of 100 ng/mL IL-33/IL-12 induced IFN-γ secretion from whole blood, pre-complexed, donor #92258 (human IL-33 [4]): 8.1
Kd (cynomolgus IL-33 [5]): 0.0275 nM
Kd (hFcgRIIIa (V158)): 215 nM
Kd (hFcgRIIIa (F158)): 987 nM
Kd (hFcgRIIa (R131)): 502 nM
Kd (hFcgRIIb): 5220 nM
Kd (hFcgRIIa (H131)): 574 nM
Kd (hFcgRI): 24.3 nM
Kd [6]: 2560 nM
Kd [7]: 1230 nM
IC50, inhibition of IL-33 (125 pM) induced IFN-γ secretion from CD4+ T cells, pre-complexed, Mean (human IL-33 [8]): 675 pM
IC50, inhibition of IL-33 (125 pM) induced IFN-γ secretion from CD4+ T cells, pre-complexed, N = 1 (human IL-33 [8]): 1060 pM
IC50, inhibition of IL-33 (125 pM) induced IFN-γ secretion from CD4+ T cells, pre-complexed, N = 2 (human IL-33 [8]): 936 pM
IC50, inhibition of IL-33 (125 pM) induced IFN-γ secretion from CD4+ T cells, pre-complexed, N = 3 (human IL-33 [8]): 282 pM
IC50, inhibition of IL-33 (125 pM) induced IFN-γ secretion from CD4+ T cells, pre-complexed, N = 4 (human IL-33 [8]): 591 pM
IC50, inhibition of IL-33 (125 pM) induced IFN-γ secretion from CD4+ T cells, pre-complexed, N = 5 (human IL-33 [8]): 790 pM
IC50, inhibition of IL-33 (125 pM) induced IFN-γ secretion from CD4+ T cells, pre-complexed, N = 6 (human IL-33 [8]): 497 pM
IC50, inhibition of IL-33 (125 pM) induced IFN-γ secretion from CD4+ T cells, pre-complexed, N = 7 (human IL-33 [8]): 574 pM
pIC50, inhibition of IL-33 (125 pM) induced IFN-γ secretion from CD4+ T cells, pre-complexed, Mean (human IL-33 [8]): 9.2
pIC50, inhibition of IL-33 (125 pM) induced IFN-γ secretion from CD4+ T cells, pre-complexed, N = 1 (human IL-33 [8]): 8.97
pIC50, inhibition of IL-33 (125 pM) induced IFN-γ secretion from CD4+ T cells, pre-complexed, N = 2 (human IL-33 [8]): 9.02
pIC50, inhibition of IL-33 (125 pM) induced IFN-γ secretion from CD4+ T cells, pre-complexed, N = 3 (human IL-33 [8]): 9.54
pIC50, inhibition of IL-33 (125 pM) induced IFN-γ secretion from CD4+ T cells, pre-complexed, N = 4 (human IL-33 [8]): 9.22
pIC50, inhibition of IL-33 (125 pM) induced IFN-γ secretion from CD4+ T cells, pre-complexed, N = 5 (human IL-33 [8]): 9.1
pIC50, inhibition of IL-33 (125 pM) induced IFN-γ secretion from CD4+ T cells, pre-complexed, N = 6 (human IL-33 [8]): 9.3
pIC50, inhibition of IL-33 (125 pM) induced IFN-γ secretion from CD4+ T cells, pre-complexed, N = 7 (human IL-33 [8]): 9.24
B1: 22A06-458 (antibody, human IgG1, kappa)
heavy: QVQLVQSGAEVKKPGASVKVSCKASGYTFISYGMHWVRQAPGQGLEWMGEINPHGGSTSYAQKFKGRVTMTRDTSTSTVYMELSSLRSEDTAVYYCARPSAAYSHYLGIDLWGRGTLVTVSSASTKGPSVFPLAPSSKSTSGGTAALGCLVKDYFPEPVTVSWNSGALTSGVHTFPAVLQSSGLYSLSSVVTVPSSSLGTQTYICNVNHKPSNTKVDKKVEPKSCDKTHTCPPCPAPELLGGPSVFLFPPKPKDTLYITREPEVTCVVVDVSHEDPEVKFNWYVDGVEVHNAKTKPREEQYNSTYRVVSVLTVLHQDWLNGKEYKCKVSNKALPAPIEKTISKAKGQPREPQVYTLPPSRDELTKNQVSLTCLVKGFYPSDIAVEWESNGQPENNYKTTPPVLDSDGSFFLYSKLTVDKSRWQQGNVFSCSVMHEALHNHYTQKSLSLSPGK
light: DIQMTQSPSSVSASVGDRVTITCRASQGISSWLAWYQQKPGKAPKLLIYAASRLQSGVPSRFSGSGSGTDFTLTISSLQPEDFATYYCQQANVFPLTFGGGTKVEIKRTVAAPSVFIFPPSDEQLKSGTASVVCLLNNFYPREAKVQWKVDNALQSGNSQESVTEQDSKDSTYSLSSTLTLSKADYEKHKVYACEVTHQGLSSPVTKSFNRGEC
